Assay results taken from publication PMC3871271 (FEBS Open Bio, 2013).
Like-named read-outs stand apart in the source and are kept apart here.

How the values were obtained:
Test in all cases: ITC
[1] = target: T1, C-terminal domain of Scherffelia dubia centrin, wild type (Scherffelia dubia, UniProt Q06827 93-168)
T1 sequence (looked up): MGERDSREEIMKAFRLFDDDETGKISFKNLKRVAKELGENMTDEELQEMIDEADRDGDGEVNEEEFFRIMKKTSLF

[2] = target: T1, C-terminal domain of Scherffelia dubia …; remark: listed apart in the source
[3] = target: T1, C-terminal domain of Scherffelia dubia …; remark: listed apart in the source
[4] = target: T1, C-terminal domain of Scherffelia dubia …; remark: listed apart in the source

Ka [1]: 3.02e+07 M⁻¹ | dH [1]: -33.8 kcal/mol | dH [2]: -40.6 kcal/mol | Ka [3]: 5.94e+07 M⁻¹ | dH [3]: -23.4 kcal/mol | Ka [4]: 7.32e+07 M⁻¹ | dH [4]: -23.4 kcal/mol
B1: P17-XPC peptide (peptide)
peptide: Ac-NWKLLAKGLLIRERLKR-NH2
